# Measurements from patent US20220290147A1, “SYSTEM FOR REGULATING GENE EXPRESSION” (Baylor College of Medicine, priority 2019, published 2022).
# Key:
# alternative splicing = experiment: RT-PCR of tetracycline-induced alternative splicing; type: cell-based; details: presence of Tc, compared to Y196CAA-2MAZ
# Description: Cells transfected with the respective constructs were grown 18 hours at 37° C. in medium in the absence or presence of tetracycline. Total RNA was isolated according to the protocol supplied with RiboPure™ RNA Purification Kit (Ambion, Austin, Tex.). For RT-PCR, RT was performed using SuperScript III (invitrogen, Carlsbad, Calif.) according to manufacturer's protocol and PCR was performed using the primers targeting the beginning of the transcript and reporter gene.
# 293T cells = experiment: Luciferase assay: tetracycline-induced transgene expression (induction in fold) from polyA aptamer constructs; type: cell-based, human
# Description: Cells were seeded in 96-well plates at a density of 25000-30000 cells/well. After 24 hours of incubation, each well was transfected with 50 ng of DNA vectors and were incubated with culture medium containing none or various concentration of tetracycline for an additional 18 hours. Luciferase activity was measured in relative light units (RLU) with a Polarstar Omega plate reader (BMG Labtech, USA). To make 36 mL of assay buffer, 144 μL 1M DTT, 108 μL M ATP, 252 μL 0.1M luciferin and 360 μl 0.05M CoA were added to 35 mL of basic buffer (25 mM Tricine, 0.5 mM EDTA-Na2, 0.54 mM Na-triphosphate, 16.3 mM MgSO4.7H2O, and 0.8% Triton X-100). After the cell medium was removed, 40 μL of assay buffer was added to each well, and luciferase activity was read twice with the Polarstar Omega plate reader. Induction in fold is calculated as the ratio of transgene expression in the presence vs absence of tetracycline.
Molecule,Tc-induced alternative splicing (alternative splicing),effect on induction of inserting CAA repeats in the 5′UTR of the named construct (293T cells)
Y196CAA-4MAZ: SEQ ID NO: 6; Y-shape polyA switch construct with 4MAZ (nucleic acid) DNA: TCAGATCGCCTGGAGACGCCATCCACGCTGTTTTGACCTCCATAGAAGACACCGGGACCGATCCAGCCTCCCCTCGAAGCTGATCCTGAGAACTTCAGGGTGAGTCTATGGGACCCTTGATGTTTTCTTTCCCCTTCTTTTCTATGGTTAAGTTCATGTCATAGGAAGGGGAGAAGTAACAGGGTACACATATTGACCAAATCAGGGTAATTTTGCATTTGTAATTTTAAAAAATGCTTTCTTCTTTTAATATACTTTTTTGTTTATCTTATTTCTAATACTTTCCCTAATCTCTTTCTTTCAGGGCAATAATGATACAATGTATCATGCCTCTTTGCACCATTCTAAAGAATAACAGTGATAATTTCTGGGTTAAGGCAATAGCAATATTTCTGCATATAAATATTTCTGCATATAAATTGTAACTGATGTAAGAGGTTTCATATTGCTAATAGCAGCTACAATCCAGCTACCATTCTGCTTTTATTTTATGGTTGGGATAAGGCTGGATTATTCTGAGTCCAAGCTAGGCCCTTTTGCTAATCATGTTCATACCTCTTATCTTCCTCCCACAGCTCCTGGGCAACGTGCTGGTCTGTGTGCTGGCCCATCACTTTGGCAAAGAATTGGCTAGCCACACACACAAATCTGGGGAGGTGAAGAATACGACCACCTGCGTTTTATACTTCCACGAGATCTGGGGAGGTGAAGAATACGACCACCTAATAAGATTACCGAAAGGCAATCTTATTAAAACATACCAGATCTTGTGAGGGTGTTTGTGGCAAAACATACCAGATCGAATTCGATCTGGGGAGGTGAAGAATACGACCACCTGCTACAAGTACCTAATAAAGTATAAAGTGCAAAACATACCAGATCTGTGTGTTGGTTTTTTGTGTGTTAACGGGGGAGGGGGAGGAAAGGGGGAGGGGGAGGAAAGGGGGAGGGGGAGGAAAGGGGGAGGGGGAGCGGCCGCCAACAACAACAACAACAACAACAACAACAACAACAACAACATAACAGTGTTCACTAGCAACCTCAAACAGACACCATG,far more pronounced,
Y209: SEQ ID NO: 8; polyA switch construct (nucleic acid) DNA: TCAGATCGCCTGGAGACGCCATCCACGCTGTTTTGACCTCCATAGAAGACACCGGGACCGATCCAGCCTCCCCTCGAAGCTGATCCTGAGAACTTCAGGGTGAGTCTATGGGACCCTTGATGTTTTCTTTCCCCTTCTTTTCTATGGTTAAGTTCATGTCATAGGAAGGGGAGAAGTAACAGGGTACACATATTGACCAAATCAGGGTAATTTTGCATTTGTAATTTTAAAAAATGCTTTCTTCTTTTAATATACTTTTTTGTTTATCTTATTTCTAATACTTTCCCTAATCTCTTTCTTTCAGGGCAATAATGATACAATGTATCATGCCTCTTTGCACCATTCTAAAGAATAACAGTGATAATTTCTGGGTTAAGGCAATAGCAATATTTCTGCATATAAATATTTCTGCATATAAATTGTAACTGATGTAAGAGGTTTCATATTGCTAATAGCAGCTACAATCCAGCTACCATTCTGCTTTTATTTTATGGTTGGGATAAGGCTGGATTATTCTGAGTCCAAGCTAGGCCCTTTTGCTAATCATGTTCATACCTCTTATCTTCCTCCCACAGCTCCTGGGCAACGTGCTGGTCTGTGTGCTGGCCCATCACTTTGGCAAAGAATTGGCTAGCCACACACACAAATCTGGGGAGGTGAAGAATACGACCACCTGCGTTTTATACTTCCGCGAGATCTGGGGAGGTGAAGAATACGACCACCTAATAAGATTACCGAAAGGCAATCTTATTAAAACATACCAGATCTTGCGAGGGTGTTTGTGGCAAAACATACCAGATCGAATTCGATCTGGGGAGGTGAAGAATACGACCACCTGCTACAAGTACCTAAATAAAGTATAAAGTGCAAAACATACCAGATCTGTGTGTTGGTTTTTTGTGTGTTAACGGGGGAGGGGGAGGAAAGGGGGAGGGGGAGGAAAGGGGGAGGGGGAGGAAAGGGGGAGGGGGAGCGGCCGCCAACAACAACAACAACAACAACAACAACAACAACAACAACATAACAGTGTTCACTAGCAACCTCAAACAGACACCATG,,higher induction
Y211: SEQ ID NO: 9; polyA switch construct (nucleic acid) DNA: TCAGATCGCCTGGAGACGCCATCCACGCTGTTTTGACCTCCATAGAAGACACCGGGACCGATCCAGCCTCCCCTCGAAGCTGATCCTGAGAACTTCAGGGTGAGTCTATGGGACCCTTGATGTTTTCTTTCCCCTTCTTTTCTATGGTTAAGTTCATGTCATAGGAAGGGGAGAAGTAACAGGGTACACATATTGACCAAATCAGGGTAATTTTGCATTTGTAATTTTAAAAAATGCTTTCTTCTTTTAATATACTTTTTTGTTTATCTTATTTCTAATACTTTCCCTAATCTCTTTCTTTCAGGGCAATAATGATACAATGTATCATGCCTCTTTGCACCATTCTAAAGAATAACAGTGATAATTTCTGGGTTAAGGCAATAGCAATATTTCTGCATATAAATATTTCTGCATATAAATTGTAACTGATGTAAGAGGTTTCATATTGCTAATAGCAGCTACAATCCAGCTACCATTCTGCTTTTATTTTATGGTTGGGATAAGGCTGGATTATTCTGAGTCCAAGCTAGGCCCTTTTGCTAATCATGTTCATACCTCTTATCTTCCTCCCACAGCTCCTGGGCAACGTGCTGGTCTGTGTGCTGGCCCATCACTTTGGCAAAGAATTGGCTAGCCACACACACAAATCTGGGGAGGTGAAGAATACGACCACCTGCGTTTTATACTTCCACGAGATCTGGGGAGGTGAAGAATACGACCACCTAATAAGATTACCGAAAGGCAATCTTATTAAAACATACCAGATCTTGTGAGGGTGTTTGTGGCAAAACATACCAGATCGAATTCGATCTGGGGAGGTGAAGAATACGACCACCTGCTACAAGTACCTAAATAAAGTATAAAGTGCAAAACATACCAGATCTGTGTGTTGGTTTTTTGTGTGTTAACGGGGGAGGGGGAGGAAAGGGGGAGGGGGAGGAAAGGGGGAGGGGGAGGAAAGGGGGAGGGGGAGCGGCCGCCAACAACAACAACAACAACAACAACAACAACAACAACAACATAACAGTGTTCACTAGCAACCTCAAACAGACACCATG,,higher induction
Y208: SEQ ID NO: 7; polyA switch construct (nucleic acid) DNA: TGGAGACGCCATCCACGCTGTTTTGACCTCCATAGAAGACACCGGGACCGATCCAGCCTCCCCTCGAAGCTGATCCTGAGAACTTCAGGGTGAGTCTATGGGACCCTTGATGTTTTCTTTCCCCTTCTTTTCTATGGTTAAGTTCATGTCATAGGAAGGGGAGAAGTAACAGGGTACACATATTGACCAAATCAGGGTAATTTTGCATTTGTAATTTTAAAAAATGCTTTCTTCTTTTAATATACTTTTTTGTTTATCTTATTTCTAATACTTTCCCTAATCTCTTTCTTTCAGGGCAATAATGATACAATGTATCATGCCTCTTTGCACCATTCTAAAGAATAACAGTGATAATTTCTGGGTTAAGGCAATAGCAATATTTCTGCATATAAATATTTCTGCATATAAATTGTAACTGATGTAAGAGGTTTCATATTGCTAATAGCAGCTACAATCCAGCTACCATTCTGCTTTTATTTTATGGTTGGGATAAGGCTGGATTATTCTGAGTCCAAGCTAGGCCCTTTTGCTAATCATGTTCATACCTCTTATCTTCCTCCCACAGCTCCTGGGCAACGTGCTGGTCTGTGTGCTGGCCCATCACTTTGGCAAAGAATTGGCTAGCCACACACACAAATCTGGGGAGGTGAAGAATACGACCACCTGCGTTTTATACTTCCGCGAGATCTGGGGAGGTGAAGAATACGACCACCTAATAAGATTACCGAAAGGCAATCTTATTAAAACATACCAGATCTTGCGAGGGTGTTTGTGGCAAAACATACCAGATCGAATTCGATCTGGGGAGGTGAAGAATACGACCACCTGCTACAAGTACCTAATAAAGTATAAAGTGCAAAACATACCAGATCTGTGTGTTGGTTTTTTGTGTGTTAACGGGGGAGGGGGAGGAAAGGGGGAGGGGGAGGAAAGGGGGAGGGGGAGGAAAGGGGGAGGGGGAGCGGCCGCCAACAACAACAACAACAACAACAACAACAACAACAACAACATAACAGTGTTCACTAGCAACCTCAAACAGACACCATG,,higher induction
